From the nanobody polyreactivity screen of Harvey et al. (2022)

experiment: yeast display, Sf9 membrane polyspecificity reagent, FACS + sequencing; frameworks hold sequencing errors
How it was run: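 Galactose induction of a Saccharomyces cerevisiae BJ5465 synthetic nanobody display library ran 36–48 hours. The cells were then stained for 1 hour at 4 °C with 10% biotinylated, detergent-solubilized Sf9 membrane reagent, pulled down on streptavidin microbeads and FACS-sorted into low and high (top ~1%) gates on expression and reagent-binding fluorescence. Labels for polyreactivity follow the gate of origin.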

Sequence	polyreactivity (PSR sort gate)
QVQLVESGGGLVQAGGSLRLSCAASGCIVSYYTMGWYRQAPGKERELVAAIRSSGGSTYADSVKGRFTISRDNAKNTVYLQMNCLKPEDTAVYYCAAVQTWRWVYARDYWGEGTQVTVSS	high polyreactivity
QVQLVESGGGLVQAGGSLRLSCAASGCTFGTYAMGWYRQAPGKERELVAAITDSTGNTYYADSVKGRFTISRDNAKNTVYLQMNSLKPEDTAVYYCALEYVYDYFWMDYWGQATQVTVSS	high polyreactivity
QVQLVESGGGLVQAGGSLRLSCAASGCTFPRYAMGWYRQAPGKERELVAAISYSGGRTYYADSVKGRFTISRDNAKNTVYLQMNSLKPEDTAVYYCATEASTKRYDYWGQGTQVTVSS	high polyreactivity
QVQLVESGGGLVQAGGSLRLSCAASGCTFVSYAMGWYRQEPGKEREFVAAIAWTGGSTRYADSVKGRFTISRDNAKNTVYLQMNSLKPEDTAVYYCAARYRHYLYGYDYWGQGTQVTLSS	low polyreactivity
QVQLVESGGGLVQAGGSLRLSCAASGDITYIYAMGWYRQAPGKERELVADISSSVGNTYYADSVKGRFTISRDNAKNTVYLQMNSLKPEDTAVYYCNADYVQPTESGGTYDYWGQGTQVTVSS	low polyreactivity
QVQLVESGGGLVQAGGSLRLSCAASGFDFSYYDMGWYRQAPGKEREFVASIDWSGGSTYYADSVKGRFTISRDNAKNTDYLQMNSLKAEATAVYYCAAELDYFPGYDYWGQGTQVTVSS	low polyreactivity
QVQLVESGGGLVQAGGSLRLSCAASGFFLGQYTMGWYRQAPGKERELVAAISSSGSTNYADSVKGRFTISRDNAKNTVYLQMNSLKPEDTAVYYCSIAGIRHVTSKFKGYHFGYWGQGTQVTVSS	low polyreactivity
QVQLVESGGGLVQAGGSLRLSCAASGFHFGSYAMGWNRQAPGKERELVASISSAGRTYYADSVKGRFTISRDNAKNTVYSQMNSLKPEDTAVYYCAAESGYPVYTYVSSGDYWGQGTQVTVSS	low polyreactivity
QVQLVESGGGLVQAGGSLRLSCAASGFICPIYPMGWYRQAPGKERELVAGISWRGGSTYYADSVKGRFTISRDKATYTVYLQMNSLKPEDTAVYYCAVVVQGYSTYYYWGQGTQVTVSS	high polyreactivity
QVQLVESGGGLVQAGGSLRLSCAASGFICVHKAMGWYREAPGNERELVAAITWSGGRTYYADSVKGRCTISRDKAKNTVYLQKNSLKPEDTAVYYCATTVNSHVPGVSKYYYWGHGTQVTVSS	high polyreactivity
QVQLVESGGGLVQAGGSLRLSCAASGFIFAAYAMGWYRQAPGKERELVAAINRSGSSTYYADSVKGRFTISRDNAKNTVYLQMNSLKPEDTAVYYCAARVVHQSRYSYEYWGQGTQVTVSS	high polyreactivity
QVQLVESGGGLVQAGGSLRLSCAASGFIFADNTMGWNRQAPGKERELVAAISRRGGSTYYADSVKGRFTISRDNAKNTVYLQMNSLKPEDTAVYYCAARPFVKHDYWGQGTQVTVSS	high polyreactivity
QVQLVESGGGLVQAGGSLRLSCAASGFIFADYDMGWYRQAPGKERELVDAISWSGGTTYYADSVKGRFTISRDNAKHTVYLQMNSLKPEDTAVYYCAAYWWAVYSVVTGARYVYWGQGTQVTLSS	high polyreactivity
QVQLVESGGGLVQAGGSLRLSCAASGFIFAEYAMGWYRQAPGKERELVAAITWSGVTTYYADSVKGRFTISRDNAKNTVYLLMNSLKPEDTAVYYCAAGRTRRKFDYWGQGTQVTVSS	low polyreactivity
QVQLVESGGGLVQAGGSLRLSCAASGFIFAEYAMGWYRQAPGKERELVVAIDVGGGSTYYADSVKGRFTISGDNAKNTVYLQMNSLKPEDTAVYYCAATQYGYWVPYQGFDYWGQGTQVTVSS	low polyreactivity
QVQLVESGGGLVQAGGSLRLSCAASGFIFAFYAMGRYRQAPGKERELVASISRRSGSTYYADSVKGRFTISRDNAKNTVYLQMNSLKPEDTALYYCAADRPPCETYGYDYWGQGTQVTVSS	low polyreactivity
QVQLVESGGGLVQAGGSLRLSCAASGFIFAQNTMGWYRQAPGKERELVAAITRRGGSTYYADSVKGRFTISRDNAKNTVYLQMNSLKPEDTAVYYCNVAFRSYYTSSLLDYWGQGTQVTVSS	high polyreactivity
QVQLVESGGGLVQAGGSLRLSCAASGFIFARNTMGWYRQSPGKERELVAAITKSGGSTYYADSVKGRFTISRDNAKNTVYLQMNSLKPEDTAVYYCAKDPVELSPADWRADYDYWGQGTQVTVSS	low polyreactivity
QVQLVESGGGLVQAGGSLRLSCAASGFIFASNTMGWYRQAPGKERELVAAISSRGGRTYYAASVKGRFTISRDNAKNTVYLQMNSLKPEDTAVYYCAAVQKGDSTLLRTKGGYWGQGTQVTVSS	high polyreactivity
QVQLVESGGGLVQAGGSLRLSCAASGFIFASYTLGWYRQAPGKERELVAAISRAGSTYYADSVKGRFTISRDNAKNTVYLQMNSLKPEDTAVYYCNAVSWRTSRYDYWGQGTQVTVSS	high polyreactivity
QVQLVESGGGLVQAGGSLRLSCAASGFIFAWNAMGWYRLAPGKERELVAAITSAGSTKYADSVKGRFTISRDNAKNTVYLQMNSLKPEDTAVYYCAAARFRIYCGQGTQVTVSS	high polyreactivity
